Results as given in patent US20240239881A1 (Innovent, published 2024).
Changes are numbered by the printed parent chain.

Assays:
Mouse ANG2 = target: T1, Mouse ANG2 (mouse, UniProt O35608 19-496, limits assumed); test: SPR, Biacore T200, antibody captured on Protein G chip
T1 sequence (looked up): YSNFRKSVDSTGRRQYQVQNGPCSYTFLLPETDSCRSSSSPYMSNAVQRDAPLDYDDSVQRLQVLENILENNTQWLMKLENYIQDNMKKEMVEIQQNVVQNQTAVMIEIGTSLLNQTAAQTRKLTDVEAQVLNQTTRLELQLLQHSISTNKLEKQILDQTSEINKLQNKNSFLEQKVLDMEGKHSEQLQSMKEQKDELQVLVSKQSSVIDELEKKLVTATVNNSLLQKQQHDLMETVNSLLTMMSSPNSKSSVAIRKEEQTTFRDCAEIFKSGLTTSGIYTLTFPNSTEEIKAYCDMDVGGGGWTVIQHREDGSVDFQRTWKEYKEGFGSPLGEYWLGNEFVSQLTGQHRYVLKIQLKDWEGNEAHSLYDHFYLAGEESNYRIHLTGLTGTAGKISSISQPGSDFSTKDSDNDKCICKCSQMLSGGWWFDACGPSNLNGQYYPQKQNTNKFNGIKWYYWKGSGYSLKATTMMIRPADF
Description: (§1) The antibody was diluted to 1 μg/mL and was captured onto channel 2 for 30 s, and channel 1 was the blank control channel. The gradient-diluted Human ANG2, Rhesus ANG2, Rabbit ANG2, Rat ANG2 and Mouse ANG2 were sequentially injected into channels 1 and 2 of the chip, from low to high concentrations (0-32 nM), at a flow rate of 30 μL/min, with one concentration per cycle, and with 180 s association time and 1200 s dissociation time at 25° C. Finally, the chip was regenerated using Glycine pH 1.5 at 30 μL/min for 30 s. The affinity assay was repeated three times.

Rat ANG2 = target: T2, Rat ANG2 (rat, UniProt O35462 19-496, limits assumed); test: as above
T2 sequence (looked up): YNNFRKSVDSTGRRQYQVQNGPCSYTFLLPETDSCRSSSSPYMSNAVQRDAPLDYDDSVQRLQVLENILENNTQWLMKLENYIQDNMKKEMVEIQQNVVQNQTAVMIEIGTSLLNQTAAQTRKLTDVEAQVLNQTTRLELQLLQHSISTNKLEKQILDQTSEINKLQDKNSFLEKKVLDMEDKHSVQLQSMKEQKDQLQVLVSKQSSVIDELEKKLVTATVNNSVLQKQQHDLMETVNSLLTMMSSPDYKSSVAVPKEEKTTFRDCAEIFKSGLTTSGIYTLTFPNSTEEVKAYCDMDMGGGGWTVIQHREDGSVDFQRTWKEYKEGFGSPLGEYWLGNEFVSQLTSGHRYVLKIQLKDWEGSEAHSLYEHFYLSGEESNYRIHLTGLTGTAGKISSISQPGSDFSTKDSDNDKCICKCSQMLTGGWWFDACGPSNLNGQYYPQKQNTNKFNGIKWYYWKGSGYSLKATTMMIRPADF
Description: as §1

Rhesus ANG2 = target: T3, Rhesus ANG2 (rhesus, UniProt F6QXG0 19-496); test: SPR, Biacore T200, antibody captured on Protein G chip, experiment 3
T3 sequence: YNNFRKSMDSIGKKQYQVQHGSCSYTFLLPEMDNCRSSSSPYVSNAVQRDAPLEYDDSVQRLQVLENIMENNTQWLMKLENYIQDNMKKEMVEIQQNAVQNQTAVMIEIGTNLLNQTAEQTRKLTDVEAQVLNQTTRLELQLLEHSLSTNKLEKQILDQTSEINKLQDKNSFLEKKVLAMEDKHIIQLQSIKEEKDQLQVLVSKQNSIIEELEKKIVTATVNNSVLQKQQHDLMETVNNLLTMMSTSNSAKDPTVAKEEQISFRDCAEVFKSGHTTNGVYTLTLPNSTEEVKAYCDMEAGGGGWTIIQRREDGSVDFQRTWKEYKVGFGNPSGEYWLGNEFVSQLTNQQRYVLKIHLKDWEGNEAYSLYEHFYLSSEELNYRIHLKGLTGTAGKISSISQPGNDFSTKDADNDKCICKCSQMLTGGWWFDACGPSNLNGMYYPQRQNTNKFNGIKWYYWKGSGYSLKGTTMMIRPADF
Description: as §1

human Ang2 = target: T4, human Ang2 (human, UniProt O15123 19-496, limits assumed); test: as above
T4 construct: also called hAng2; h Ang2
T4 sequence: T3 sequence with V279I, L284F, V291I, A410G, G468A
Description: as §1

binding result (Mouse ANG2): no binding (tested: 0-32 nM)
binding result (Rat ANG2): no binding (tested: 0-32 nM)
Kd (Rhesus ANG2): 0.13 nM
koff (Rhesus ANG2): 4.03e-05 s⁻¹
kon (Rhesus ANG2): 311000 M⁻¹ s⁻¹
Kd (human Ang2): 0.0357 nM
koff (human Ang2): 1.05e-05 s⁻¹
kon (human Ang2): 293000 M⁻¹ s⁻¹
B1: humanized antibody hz81H10.4 (antibody, human IgG1, kappa, V domains shown)
VH: EVQLVESGGGLVKPGGSLRLSCAASGFTFSNYWMNWVRQAPGKGLEWVAEIRLKSNNYATHYAESVKGRFTISRDVSKNTVYLQMNSLKTEDTAVYYCTDTAPFAYWGQGTLVTVSS
VL: DIQMTQSPSSLSASVGDRVTITCKASQDVGTDVAWYQQKPGKAPKLLIYWASTRHTGVPSRFSGSGSGTDFTLTISSLQPEDFATYYCQQYSSYPLTFGGGTKVEIKR
notes: also called IBI335
